Experiment [1] has as its target T1, human CD84 on cells (human) (UniProt Q9UIB8).
T1 sequence (looked up): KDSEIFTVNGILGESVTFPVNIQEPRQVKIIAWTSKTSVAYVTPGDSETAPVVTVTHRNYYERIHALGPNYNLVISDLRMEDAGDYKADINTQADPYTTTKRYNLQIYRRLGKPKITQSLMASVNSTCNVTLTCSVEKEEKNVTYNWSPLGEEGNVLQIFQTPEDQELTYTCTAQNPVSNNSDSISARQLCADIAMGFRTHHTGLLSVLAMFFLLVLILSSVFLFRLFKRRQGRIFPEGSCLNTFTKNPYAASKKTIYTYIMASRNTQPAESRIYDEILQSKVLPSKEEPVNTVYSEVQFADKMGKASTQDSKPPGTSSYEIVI
The experiment can be described thus: flow cytometry, hybridoma supernatant at equal antibody concentration, Ramos cells.

Experiment [2] concerns the target T1, human CD84 on cells (human). The experiment can be described thus: flow cytometry, hybridoma supernatant at equal antibody concentration, 300.19-CD84+ cells.
Experiment [3] shares this target. Put plainly: flow cytometry, hybridoma supernatant at equal antibody concentration, lymphocytes. (A flow cytometer gives signals particle by particle.)
For experiment [4] the target is unchanged. Put plainly: flow cytometry, hybridoma supernatant at equal antibody concentration, monocytes.
Experiment [5] has the same target. Put plainly: flow cytometry, hybridoma supernatant at equal antibody concentration, Raji cells.
For experiment [6], the target named is T2, Human CD84 produced by mammalian cells (human) (UniProt Q9UIB8).
T2 sequence (looked up): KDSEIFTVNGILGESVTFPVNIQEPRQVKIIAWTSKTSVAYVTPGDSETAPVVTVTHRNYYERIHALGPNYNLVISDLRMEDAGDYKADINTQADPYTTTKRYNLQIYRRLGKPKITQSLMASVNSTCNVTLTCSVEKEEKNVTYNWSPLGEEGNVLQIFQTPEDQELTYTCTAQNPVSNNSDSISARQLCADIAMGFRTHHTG
Put plainly: monoclonal phage ELISA, plate coated with CD84 antigen, anti-phage HRP antibody. For orientation: In an ELISA, binding on a coated surface is turned into a signal by an enzyme label.

Substitutions are numbered along the chain they refer to.

B1: GYCD84.3.298 (antibody, mouse IgG1, V domains shown)
VH: QVTLKESGPGILQPSQTLSLTCSFSGFSLSTSGMGVGWIRQPSGKGLEWLAHIWWDDVKRYNPALRSRLTISKDTSSSQVFLNIASVDTADTATYYCTRIAVTYFFDFWGQGTTLTVSS
VL: DIQMTQSPASLSASVGETVTITCRASENIFSSFAWYQQKRGRSPQLLVYNARTLAEGVPSRFSGSGSGTQFSLKINSLQPEDFGTYFCQHHYASPFTFGSGTELGVK
Molecule B1 had a Ramos binding in experiment [1] of 28.3%. The molecule further gave a 300.19-CD84 binding in experiment [2] of 93.5%. In experiment [3], this molecule yielded a Lymphocyte binding of 16.6%. The molecule further came in with a Monocyte binding in experiment [4] of 53.9%. The Raji binding in experiment [5] came out at 45.9%.

B2: R3-H3 (scFv)
scFv: EVQLVESGGGLVQPGGSLRLSCAASGFTFSDNAMSWVRQAPGKGLEWVSAISGTGRTTYYADSVKGRFTISRDNSKNTLYLQMNSLRAEDTAVYYCAKWDCSDGRCYWAYWGQGTLVTVSSGGGGSGGGGSGGGGSGGGGASEIVLTQSPLSLPVTLGQPASISCRSSQSLVYSDGDTYLNWFQQRPGQSPRRLIYKVSNRDSGVPDRFSGSGSGTDFTLKISRVEAEDVGVYYCMQGTHWPPNTFGQGTRLEIK
Turning to B2, the ELISA signal on antigen (Ag), read at 450 nm (absorbance at 450 nm) in experiment [6] amounted to 0.696.

B3: GYCD84.2.32 (antibody, mouse IgG1, V domains shown)
VH: EVQLQQSGPELEKPGASVKISCKASGYSFTGYNMNWVKQSNGKSLEWIGNIDPYYGGTNYNQKFKGKATLTVDKSSSTAYMQLKSLTSEDSAVYYCARGLLSGSFPYWGQGTLVTVSA
VL: DIQMTQSPASLSASVGETVTITCRASENIYSYLAWYQQKQGKSPQLLVYNAKTLAEGVPSRFSGSGSGTQFSLKINSLHPEDFGSYFCQHHYGSPLTFGAGTKLEVK
B3 returned a Ramos binding in experiment [1] of 78.6%. In experiment [2], this molecule had a 300.19-CD84 binding of 99%. In addition, the Lymphocyte binding in experiment [3] was 28.7%. The Monocyte binding in experiment [4] came to 78.2%. For the same molecule, in experiment [5], the Raji binding stood at 99.5%.

B4: GYCD84.1-7 (antibody, mouse IgG1, V domains shown)
VH: B1 VH with R66K, N83K, T98A, I100M, A101R, V102T, T103S, F105Y, F108Y
VL: B3 VL with Y30F, Y32S, K39R, H79Q, F87Y, G93A, S94T, L96F, A100S, V106I
As for B4, the Ramos binding in experiment [1] amounted to 59%. Further, the 300.19-CD84 binding in experiment [2] turned out to be 92.6%. The same molecule yielded a Lymphocyte binding in experiment [3] of 19%. This molecule also came in with a Monocyte binding in experiment [4] of 64.4%. This molecule also registered a Raji binding in experiment [5] of 91.4%.

B5: R3-G7 (scFv)
scFv: QVQLVESGGGVVQPGRSLRLSCTASGFTFSSYPMHWVRQAPGKGLEWVAAISYHGRNKFYADSVKGRFTISRDDLRSTLYLQMNNLKADDTAVYSCARDRDATPGGTGVGNHGMAVWGQGTTVTVSSGGGGSGGGGSGGGGSGGGGASEIVLTQSPLSLPVTPGEPASISCKSSQSLLHSSGYNYLDWYLQKPGQSPQLLIHMGSNRASGVPARFSGSGSGTDFTLRISRVEAEDVGVYYCMQGLQTPPTFGGGTKLEIK
On to B5, for which the ELISA signal on antigen (Ag), read at 450 nm (absorbance at 450 nm) in experiment [6] was found to be 2.4.

B6: GYCD84.5.171 (antibody, mouse IgG1, V domains shown)
VH: EVQLVESGGGLVQPKGSLKLACAASGFTFNIYAMNWVRQAPGKGLEWVARIRSKSNNYARFYADSVKDRFTISRDDSQSMLYLQMNNLKTEDTAMYYCVRPLRSYFSMDYWGQGTSVTVSS
VL: SIVMTQSPKSMSMSVGERVTLSCKASENVDTYVSWYQQKPEQSPKLLIYGASNRYTGVPDRFTGSGSATDFTLTISSVKAEDLADYHCGQTYSYPWTFGGGTKLEIK
In turn, B6 registered a Ramos binding in experiment [1] of 35.1%. For the same molecule, in experiment [2], the 300.19-CD84 binding is 93.2%. Also, the Lymphocyte binding in experiment [3] stood at 26.8%. This molecule came in with a Monocyte binding in experiment [4] of 64.8%. The Raji binding in experiment [5] worked out at 73.9%.

B7: GYCD84.1-108 (antibody, mouse IgG2a, V domains shown)
VH: QVQLQQSGAELVRPGTSVKMSCKAAGYTFTNYWIGWVRQRPGHGLEWIGDIYPGGGYTNYNENFKGKATLTADTSSSTAYMQLSSLTSEDSAIYYCARSTTYYSSYWCFDVWGPGTTVTVSS
VL: DIVMTQSPSSLSVSAGEKVTMSCKSSQSLLNSGNQANYLAWYQQKPGQPPKLLINGASTRESGVPDRFTGSGSGTDFTLTISSVQAEDLAVYYCQNDHSYPFTFGSGTKLEIK
In the case of B7, the Ramos binding in experiment [1] was 31.2%. Moreover, in experiment [2], the 300.19-CD84 binding worked out at 93.9%. Also, the Lymphocyte binding in experiment [3] is 13.6%. In experiment [4], this molecule came in with a Monocyte binding of 41.3%. Also, the Raji binding in experiment [5] stood at 30.3%.

B8: GYCD84.2.27 (antibody, mouse IgG1, V domains shown)
VH: QVTLKESGPGILQPSQTLSLTCSFSGFSLTTSGMGVGWIRQPSGKGLEWLAHIWWDDVKRYNPALKSRLTISKDTSSSQVFLKIASVDTADTASYYCARMSTSYYFDYWGQGTTLTVSS
VL: DIVMTQSHKFMSTSLGDRVSISCKASQSLFTSVAWYQQKPGQSPKLLIYSASYRYTGVPDRFTGSGSGTDFTFTISSVQAEDLAVYYCQQHYSSPFTFGSGTKLGIK
With B8, the Ramos binding in experiment [1] is 66.3%. The 300.19-CD84 binding in experiment [2] was determined as 96.3%. For the same molecule, the Lymphocyte binding in experiment [3] amounted to 25.4%. The molecule also had a Monocyte binding in experiment [4] of 77.5%. In addition, the Raji binding in experiment [5] turned out to be 97.5%.

B9: 152-1D5 (antibody, mouse IgG1, V domains shown)
VH: QVQLQQPGAEVVQPGTSVKLSCKASGYNFTNYWINWVKLRPGQGLEWIGDIYPVSGTTNYNEKFKRKATLTVDTSSSTGNMQLSSLASEDSALYYCASGTGRFAYWGQGTLVTVSA
VL: DIVLTQSPASLAVSLGQRATISCRASQSVSTSSYSYMHWYQQKPGQPPKLLIKFASNLESGVPARFSGSGSGTDFTLNIHPVEEEDTATYYCQHSWEIPYTFGGGTKLEIK
In experiment [1], B9 displayed a Ramos binding of 73.4%. The molecule also registered a 300.19-CD84 binding in experiment [2] of 92.5%. For the same molecule, the Lymphocyte binding in experiment [3] turned out to be 24.4%. Moreover, in experiment [4], the Monocyte binding is 72%. The Raji binding in experiment [5] stood at 97.6%.

B10: GYCD84.1-97 (antibody, mouse IgG2a, V domains shown)
VH: QVQLQQPGAELVKPGTSVKLSCKASGYNFTSYWINWVKLRPGQGLEWIGDIYLGSGSTNYNEKFKSKATLTVDTSSSSAYMQLSSLVSEDSALYYCATSGGYLGYWGQGTTLTVSS
VL: B9 VL
In experiment [2], B10 came in with a 300.19-CD84 binding of 97.7%.

B11: GYCD84.1-226 (antibody, mouse IgG1, V domains shown)
VH: QVQLQQPGAELVKPGTSVKLSCKASGYNFTRYWINWVKLRPGQGLEWIGDIYPGSGSTNYNEKFKSKATLTVDTSSSTAYMQLSRLASEDSALYYCARDTTIAYWGQGTLVTVSA
VL: B9 VL with A9T, S30T, S33R
In turn, B11 registered a Ramos binding in experiment [1] of 80.2%. The 300.19-CD84 binding in experiment [2] is 98.1%. Further, the Lymphocyte binding in experiment [3] is 28.7%. The molecule also returned a Monocyte binding in experiment [4] of 76.1%. Moreover, in experiment [5], the Raji binding amounted to 99.9%.

B12: GYCD84.3.89 (antibody, mouse IgG1, V domains shown)
VH: EVKLLESGGGLVQPGGSLKLSCAASGFGFSRSWMSWVRQAPGKGLEWIGEINPDSSTINYTPSLKDKFIISRDNAKNTLFLQMSKVRSEDTALYYCATFYDGYSIYWYFDVWGAGTTVTVSS
VL: DVLMTQTPLSLPVSLGDQASISCRSSQSIVHSNGDTYLEWYLQKPGQSPKLLIYKVSNRFSGVPDRFSGSGSGTDFTLKISRVEAEDLGVYYCFQGSHVPRTFGGGTKLEIK
B12 registered a Ramos binding in experiment [1] of 91.3%. In experiment [2], this molecule registered a 300.19-CD84 binding of 83%. In addition, in experiment [3], the Lymphocyte binding stood at 24.9%. In experiment [4], the Monocyte binding was found to be 72.7%. The same molecule came in with a Raji binding in experiment [5] of 99.1%.

B13: GYCD84.1-207 (antibody, mouse IgG1, V domains shown)
VH: EVKLLESGGGLVQPGGSLKLSCAASGFDFSRYWMSWVRQAPGKGLEWIGEINPDSSTINYTPSLKDKFIISRDNAKNTLYLQMSKVRSEDTALYYCARPGPTVVATYWYFDVWGAGTTVTVSS
VL: B12 VL with D35N, N58S, G71A
Regarding B13, in experiment [2], the 300.19-CD84 binding was 94.2%.

The values are drawn from patent publication EP4209511A1.
